Laboratory results from the supplement of paper PMC10567573.
± gives the standard deviation.

Test: protein stability index of a GFP-peptide fusion (GPS, HEK-293T) (PSI 1-6); higher = more stable
[1] = treatment: DMSO, c terminus: a fixed tail appended
[2] = treatment: MLN4924 1 uM, 8 h, c terminus: a fixed tail appended
[3] = treatment: DMSO, c terminus: native
[4] = treatment: MLN4924 1 uM, 8 h, c terminus: native
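Note: 24-mer peptide tiles fused after GFP, lentivirally expressed, FACS-sorted into six equal bins by GFP/DsRed ratio, decoded by Illumina sequencing, PSI is the read-weighted mean bin number.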

Sequence	protein stability index [1]	protein stability index [2]	protein stability index [3]	protein stability index [4]
DSQDLVASFRVTTGTSNTTAIKSI [RBBP5]	3.46 ± 0.24	3.59 ± 0.26	–	–
DSQRVASVSLDRCIKIWDVTSQAT [WDR88]	3.1 ± 0.22	3.12 ± 0.17	–	–
DSSHDSARASEGSDSGSDKSLEGG [SMG5]	5.54 ± 0.31	5.51 ± 0.31	–	–
DTINRSVLDFDFEKLCSISLSHIN [USP39]	2.6 ± 0.32	2.79 ± 0.24	–	–
DTISTIKSVAWEGGACPAFLPSLR [NCF4]	2.92 ± 0.3	2.9 ± 0.38	–	–
DTTRVENLIKSENYGKILVEKNEH [R3HDM1]	4.46 ± 0.089	4.4 ± 0.1	–	–
DVEVPASVTGYSFASDGDSGTCSP [ADD1]	5.16 ± 0.19	5.29 ± 0.11	–	–
DVIQALDLSVPLMDVGETAMVTAD [FKBP8]	3.41 ± 0.29	3.53 ± 0.19	–	–
DVTCNEFFFDRNPGAFGTILTFLR [KCNG1]	2.59 ± 0.33	2.65 ± 0.12	–	–
DYKLLKPSLAVNLADPYRSLKAPG [JUNB]	3.41 ± 0.35	3.35 ± 0.14	–	–
DYSASEYRWHINFTTFFIDCMAAL [SCD]	2.54 ± 0.17	2.63 ± 0.47	–	–
DYWLRRFEAEPLPENTNRQLLLQF [PI4K2A]	2.41 ± 0.21	2.35 ± 0.27	–	–
EAARLEYDAYRTDLEELSLGPRDA [ARFIP2]	4.78 ± 0.15	4.86 ± 0.15	–	–
EACGRCEEVPEAYVDIHTGLSGSG [PYCR3]	4.29 ± 0.67	4.57 ± 0.11	–	–
EAETPPNGPDCGYGSFHQQYWLDG [ATE1]	3.89 ± 0.31	4.15 ± 0.11	–	–
EAFQIVLSHLLGDAGSPYLIGLIS [SPNS1]	3.11 ± 0.37	2.98 ± 0.41	–	–
EALSVPLSLCVSSHLALPAQHHWE [CLPTM1]	2.15 ± 0.27	2.2 ± 0.29	–	–
EDIALNKHRSRRKWCFWNSSPAVA [RHOBTB1]	2.31 ± 0.22	2.28 ± 0.23	–	–
EDLMPLAAAYGHALEQYEGESWRE [P3H4]	4.59 ± 0.53	4.86 ± 0.17	–	–
EDPSFWDCFCFTEEIPIRNGTKS [AASDHPPT]	–	–	3.92 ± 0.12	4.22 ± 0.22
EDQAEAWGCSCCPPETKHQALSGT [TSPAN10]	4.71 ± 0.31	4.67 ± 0.18	–	–
EEEEEEEAAGVVVEEELFHQQGTP [LMNB1]	5.38 ± 0.31	5.47 ± 0.41	–	–

Sequence	protein stability index [1]	protein stability index [2]	protein stability index [3]	protein stability index [4]
EEEVVEGEKEVEALKKSADWVSDW [BNIP3L]	5.08 ± 0.25	5.36 ± 0.34	–	–
EEFIATIRAAKGLDQALKEGGKLP [ZC2HC1A]	3.98 ± 0.22	3.93 ± 0.16	–	–
EEQVILTEKDLLEDGFGEHPFYHC [SAT1]	3.95 ± 0.24	4.15 ± 0.42	–	–
EERAKAKHLARQLEEKDRVLKKQD [CHCHD3]	5.51 ± 0.14	5.42 ± 0.16	–	–
EERQAAQNECQVLKLLNHPNVIEY [NEK8]	4.01 ± 0.16	4.29 ± 0.11	–	–
EEWGQLDPTQRILYRDVMLETFGH [ZNF8]	2.91 ± 0.32	3.22 ± 0.38	–	–
EFPESRKPISTKSQFLKHQQTHNI [ZNF649]	3.72 ± 0.47	3.57 ± 0.5	–	–
EFSLVNVNLQRFGMNGQMLCNLGK [ETS2]	2.32 ± 0.4	2.58 ± 0.16	–	–
EGAIAVHCKAGLGRTGTLIACYVM [CDC14A]	3.02 ± 0.56	2.86 ± 0.51	–	–
EGGKLPPPPPPSYDPDYIQCPYCQ [ZC2HC1A]	4.03 ± 0.3	4.45 ± 0.27	–	–
EGNHPSARKLTAQRRASTVSSVTQ [NET1]	4.39 ± 0.25	4.69 ± 0.18	–	–
EGSREHAFQITGVWDASRAPRGTP [PLEKHN1]	4.34 ± 0.27	4.39 ± 0.26	–	–
EGSVACLWWDPIQRLLFSGASDNS [WDFY1]	2.36 ± 0.32	2.43 ± 0.1	–	–
EHDAWFIFFMAAFAFSNGYLASLC [SLC29A1]	3.19 ± 0.5	3.25 ± 0.48	–	–
EHSWIKAIRRRNVRGEDSGRKPER [DAPK3]	3.62 ± 1.7	4.07 ± 0.23	–	–
EINKRTAAENEFVLLKKDVDAAYA [KRT71]	3.76 ± 0.26	4.24 ± 0.24	–	–
EIPKQVKVKKLKNLKTLDSKPGVY [DENND6A]	3.4 ± 0.34	3.31 ± 0.52	–	–
EKEQEKMRQDLEEERVALNTEIEK [PKD2L1]	5.45 ± 0.27	5.64 ± 0.15	–	–
EKHCEFKQLALDHFKKTKKMGGKD [ATL3]	4.64 ± 0.14	4.57 ± 0.39	–	–
EKLKVAPPNADLEQGFQEGVPNAS [MFF]	5.28 ± 0.17	5.22 ± 0.17	–	–
EKTQKNQCWKSLFIDTYSDVGRYI [FBXO3]	2.53 ± 0.73	2.15 ± 0.33	–	–
ELCHHVAEVWVSGTIFIRNVLLFK [RETREG3]	3.09 ± 0.67	2.81 ± 0.61	–	–

Sequence	protein stability index [1]	protein stability index [2]	protein stability index [3]	protein stability index [4]
ELETVDFKDKLEETKGQINNSIKD [SERPINB5]	5.29 ± 0.46	5.51 ± 0.12	–	–
ELFAWGRGDSGRLGLGTRESHSCP [NEK8]	2.95 ± 0.26	3.27 ± 0.22	–	–
ELLTLVNRKVSQRRVDFCKDPSAI [CASP6]	2.22 ± 0.36	2.24 ± 0.14	–	–
ELPSALESHEVPGTLSMGVPQIFK [ZNF24]	4.07 ± 0.12	4.11 ± 0.13	–	–
ELRRNHCFQDFKEEKPQENKTWRE [ELOA2]	3.31 ± 0.31	3.47 ± 0.41	–	–
EMAEQLMTLAYDNGINLFDTAEVY [KCNAB2]	2.3 ± 0.44	2.44 ± 0.29	–	–
EMREQYEAMAEKNRRDVEAWFFSK [KRT15]	3.85 ± 0.13	3.88 ± 0.39	–	–
EMSIHLSRPNGTSAMLLVTLGKVL [MED27]	2.41 ± 0.46	2.2 ± 0.26	–	–
EMWADQLTSLKDLYKSLKTLSAEL [CEP70]	2.3 ± 0.18	2.1 ± 0.25	–	–
ENQRENLEQPFLSVFKKGRRRVPV [PLEKHN1]	3.31 ± 0.4	3.46 ± 0.18	–	–
EPAGSLRELGVWRSLLRLRATRAG [C2CD2L]	2.88 ± 0.29	3.06 ± 0.46	–	–
EPHGKMFNEQTWEVSQQDPSHGEV [ZSCAN9]	5.06 ± 0.16	5.04 ± 0.18	–	–
EPVAAGSGIPEVKCYLNGVKVPGI [CLCN6]	3.19 ± 0.61	3.59 ± 0.34	–	–
EPVLLFGKIRRGAYALPAGLSAPA [TRIB3]	2.76 ± 0.19	3.01 ± 0.26	–	–
ERKQALYEYARRRFTERRAQEAD [AUP1]	–	–	4.22 ± 0.15	4.25 ± 0.29
ERLKQEIERLTREVEATRRALIDR [DDIT3]	3.6 ± 0.24	3.56 ± 0.29	–	–
ERRPRRVEAERPHSLIGVIRETVL [FAM189A2]	3.64 ± 0.32	3.91 ± 0.41	–	–
ERRRGPAAGEQLQQQHVSCQVFPE [ATP23]	4.6 ± 0.21	4.72 ± 0.36	–	–
ERTSPGAIHYCASTSEESWTDSEV [SPDEF]	5.25 ± 0.058	4.97 ± 0.18	–	–
ESDSCQKCEQPFFWNIKQMWDTKT [WDFY1]	3.25 ± 0.089	3.19 ± 0.24	–	–
ESDTDGAGGNSSSSAAMQSSCSST [CCDC6]	5.58 ± 0.2	5.69 ± 0.3	–	–
